{
  "source": "paper PMC5356237",
  "origin": "cited, not measured here",
  "molecular_target": "HER3 (Homo sapiens) (UniProt P21860)",
  "sequence (P21860 20-1342)": "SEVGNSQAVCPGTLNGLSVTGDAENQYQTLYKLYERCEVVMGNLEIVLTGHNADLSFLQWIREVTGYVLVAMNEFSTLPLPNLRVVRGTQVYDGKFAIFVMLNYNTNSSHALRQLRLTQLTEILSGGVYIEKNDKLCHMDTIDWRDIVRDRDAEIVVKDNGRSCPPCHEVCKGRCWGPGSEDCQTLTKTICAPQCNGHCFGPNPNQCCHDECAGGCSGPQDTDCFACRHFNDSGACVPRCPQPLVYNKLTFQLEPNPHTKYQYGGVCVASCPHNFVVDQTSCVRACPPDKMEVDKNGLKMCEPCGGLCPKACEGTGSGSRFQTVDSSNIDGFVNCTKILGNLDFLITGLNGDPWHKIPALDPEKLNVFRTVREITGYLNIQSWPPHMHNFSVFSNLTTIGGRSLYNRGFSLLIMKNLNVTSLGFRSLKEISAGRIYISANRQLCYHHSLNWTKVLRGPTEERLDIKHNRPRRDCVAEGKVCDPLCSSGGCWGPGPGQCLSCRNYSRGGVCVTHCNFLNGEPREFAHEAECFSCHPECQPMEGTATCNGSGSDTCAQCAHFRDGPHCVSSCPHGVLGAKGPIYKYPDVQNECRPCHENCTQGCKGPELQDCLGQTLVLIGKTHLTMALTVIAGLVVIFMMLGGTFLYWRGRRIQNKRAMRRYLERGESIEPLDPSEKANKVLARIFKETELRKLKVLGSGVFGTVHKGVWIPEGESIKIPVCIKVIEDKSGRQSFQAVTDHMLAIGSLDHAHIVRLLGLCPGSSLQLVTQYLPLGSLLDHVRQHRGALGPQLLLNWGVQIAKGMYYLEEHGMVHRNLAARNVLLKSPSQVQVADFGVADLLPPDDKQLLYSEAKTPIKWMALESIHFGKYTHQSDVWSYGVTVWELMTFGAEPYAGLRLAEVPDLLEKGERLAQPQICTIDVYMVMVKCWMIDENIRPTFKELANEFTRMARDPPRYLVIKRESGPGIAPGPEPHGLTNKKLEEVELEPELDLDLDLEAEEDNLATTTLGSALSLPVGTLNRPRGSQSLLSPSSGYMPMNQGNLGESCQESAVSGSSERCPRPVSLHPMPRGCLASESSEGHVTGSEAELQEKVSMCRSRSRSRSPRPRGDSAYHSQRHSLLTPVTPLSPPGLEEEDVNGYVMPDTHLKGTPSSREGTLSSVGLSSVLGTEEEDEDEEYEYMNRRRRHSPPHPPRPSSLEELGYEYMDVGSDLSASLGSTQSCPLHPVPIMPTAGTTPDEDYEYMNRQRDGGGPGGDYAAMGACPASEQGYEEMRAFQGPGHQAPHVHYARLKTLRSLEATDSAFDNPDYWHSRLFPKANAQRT",
  "data": [
    {"substance": "NRG1b (from UniProt Q02297)", "values": [
      {"measurement": "Kd", "value": 0.1, "unit": "nM"}
    ]}
  ]
}
